Results from patent publication US20260193334A1 (ZOETIS SERVICES, published 2026).

Key:
[1] = target: T1, canine FcRn complex (FcRn-α subunit and β-microglobulin) (canine, UniProt A0A8I3PFR8 25-347, biotin labeled through BirA enzymatic reaction in Example 5); assay: SPR (Biacore), FcRn amine-coupled on CM5, IgG as analyte, pH 6, 15 C
[2] = target: T1, canine FcRn complex (FcRn-α subunit and …); assay: SPR (Biacore), FcRn amine-coupled on CM5, IgG as analyte, pH 7.2, 15 C

T1 sequence (A0A8I3PFR8 entry or part of it, one chain of several): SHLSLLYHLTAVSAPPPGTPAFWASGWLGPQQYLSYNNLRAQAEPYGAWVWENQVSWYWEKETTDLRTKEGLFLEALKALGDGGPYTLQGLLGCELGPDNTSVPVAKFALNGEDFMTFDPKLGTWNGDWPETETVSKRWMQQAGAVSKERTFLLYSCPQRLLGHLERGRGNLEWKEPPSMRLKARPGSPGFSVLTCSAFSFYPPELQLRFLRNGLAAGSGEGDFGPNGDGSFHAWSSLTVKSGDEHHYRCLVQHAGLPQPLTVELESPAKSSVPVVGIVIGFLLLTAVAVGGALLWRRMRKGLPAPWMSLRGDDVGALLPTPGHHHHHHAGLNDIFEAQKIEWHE

Row | Binder | Kd [1] [nM] | Kd [2] [nM]
1 | anti-TGFβ antibody ZTS-4155, canine IgGB (65), N434H (antibody, See m9; also called mAb3 N434H) heavy: EVQLVQSGAEVKKPGASVKVSCKTSGYTFITYWMNWVRQAPGAGLDWMGQIFPASGSTNYNEMFEGRVTLTADTSTSTAYMELSSLRAGDIAVYYCARGDGNYALDAMDYWGQGTLVTASTTAPSVFPLAPSCGSTSGSTVALACLVSGYFPEPVTVSWNSGSLTSGVHTFPSVLQSSGLYSLSSMVTVPSSRWPSETFTCNVAHPASKTKVDKPVPKRENGRVPRPPDCPKCPAPEMLGGPSVFIFPPKPKDTLLIARTPEVTCVVVDLDPEDPEVQISWFVDGKQMQTAKTQPREEQFNGTYRVVSVLPIGHQDWLKGKQFTCKVNNKALPSPIERTISKARGQAHQPSVYVLPPSREELSKNTVSLTCLIKDFFPPDIDVEWQSNGQQEPESKYRTTPPQLDEDGSYFLYSKLSVDKSRWQRGDTFICAVMHEALHHHYTQESLSHSPGK VL: DIVMTQTPPSLSVSPRETASISCRASESVDSYGNSFMHWYLQKPGQSPQLLIYLASNLESGVSDRFSGSGSGTDFTLRISRVEANDTGVYYCQQNNEDPLTFGQ | 4.8 | 38
2 | anti-TGFβ antibody ZTS-4155, canine IgGB (65), N434M (antibody) chain 1: EVQLVQSGAEVKKPGASVKVSCKTSGYTFITYWMNWVRQAPGAGLDWMGQIFPASGSTNYNEMFEGRVTLTADTSTSTAYMELSSLRAGDIAVYYCARGDGNYALDAMDYWGQGTLVTVSSASTTAPSVFPLAPSCGSTSGSTVALACLVSGYFPEPVTVSWNSGSLTSGVHTFPSVLQSSGLYSLSSMVTVPSSRWPSETFTCNVAHPASKTKVDKPVPKRENGRVPRPPDCPKCPAPEMLGGPSVFIFPPKPKDTLLIARTPEVTCVVVDLDPEDPEVQISWFVDGKQMQTAKTQPREEQFNGTYRVVSVLPIGHQDWLKGKQFTCKVNNKALPSPIERTISKARGQAHQPSVYVLPPSREELSKNTVSLTCLIKDFFPPDIDVEWQSNGQQEPESKYRTTPPQLDEDGSYFLYSKLSVDKSRWQRGDTFICAVMHEALHMHYTQESLSHSPGK chain 2: DIVMTQTPPSLSVSPRETASISCRASESVDSYGNSFMHWYLQKPGQSPQLLIYLASNLESGVSDRFSGSGSGTDFTLRISRVEANDTGVYYCQQNNEDPLTFGQGTKLEIKRNDAQPAVYLFQPSPDQLHTGSASVVCLLNSFYPKDINVKWKVDGVIQDTGIQESVTEQDKDSTYSLSSTLTMSSTEYLSHELYSCEITHKSLPSTLIKSFQRSEC | 18.8 | 11
3 | anti-TGFβ antibody ZTS-4155, canine IgGB (65), N434Q (antibody) chain 1: EVQLVQSGAEVKKPGASVKVSCKTSGYTFITYWMNWVRQAPGAGLDWMGQIFPASGSTNYNEMFEGRVTLTADTSTSTAYMELSSLRAGDIAVYYCARGDGNYALDAMDYWGQGTLVTVSSASTTAPSVFPLAPSCGSTSGSTVALACLVSGYFPEPVTVSWNSGSLTSGVHTFPSVLQSSGLYSLSSMVTVPSSRWPSETFTCNVAHPASKTKVDKPVPKRENGRVPRPPDCPKCPAPEMLGGPSVFIFPPKPKDTLLIARTPEVTCVVVDLDPEDPEVQISWFVDGKQMQTAKTQPREEQFNGTYRVVSVLPIGHQDWLKGKQFTCKVNNKALPSPIERTISKARGQAHQPSVYVLPPSREELSKNTVSLTCLIKDFFPPDIDVEWQSNGQQEPESKYRTTPPQLDEDGSYFLYSKLSVDKSRWQRGDTFICAVMHEALHQHYTQESLSHSPGK chain 2: DIVMTQTPPSLSVSPRETASISCRASESVDSYGNSFMHWYLQKPGQSPQLLIYLASNLESGVSDRFSGSGSGTDFTLRISRVEANDTGVYYCQQNNEDPLTFGQGTKLEIKRNDAQPAVYLFQPSPDQLHTGSASVVCLLNSFYPKDINVKWKVDGVIQDTGIQESVTEQDKDSTYSLSSTLTMSSTEYLSHELYSCEITHKSLPSTLIKSFQRSEC | 11.8 | 50.2
4 | anti-TGFβ antibody ZTS-4155, canine IgGB (65), N434R (antibody) chain 1: EVQLVQSGAEVKKPGASVKVSCKTSGYTFITYWMNWVRQAPGAGLDWMGQIFPASGSTNYNEMFEGRVTLTADTSTSTAYMELSSLRAGDIAVYYCARGDGNYALDAMDYWGQGTLVTVSSASTTAPSVFPLAPSCGSTSGSTVALACLVSGYFPEPVTVSWNSGSLTSGVHTFPSVLQSSGLYSLSSMVTVPSSRWPSETFTCNVAHPASKTKVDKPVPKRENGRVPRPPDCPKCPAPEMLGGPSVFIFPPKPKDTLLIARTPEVTCVVVDLDPEDPEVQISWFVDGKQMQTAKTQPREEQFNGTYRVVSVLPIGHQDWLKGKQFTCKVNNKALPSPIERTISKARGQAHQPSVYVLPPSREELSKNTVSLTCLIKDFFPPDIDVEWQSNGQQEPESKYRTTPPQLDEDGSYFLYSKLSVDKSRWQRGDTFICAVMHEALHRHYTQESLSHSPGK chain 2: DIVMTQTPPSLSVSPRETASISCRASESVDSYGNSFMHWYLQKPGQSPQLLIYLASNLESGVSDRFSGSGSGTDFTLRISRVEANDTGVYYCQQNNEDPLTFGQGTKLEIKRNDAQPAVYLFQPSPDQLHTGSASVVCLLNSFYPKDINVKWKVDGVIQDTGIQESVTEQDKDSTYSLSSTLTMSSTEYLSHELYSCEITHKSLPSTLIKSFQRSEC | 2.7 | 285
5 | anti-TGFβ antibody ZTS-4155, canine IgGB (65), N434T (antibody) chain 1: EVQLVQSGAEVKKPGASVKVSCKTSGYTFITYWMNWVRQAPGAGLDWMGQIFPASGSTNYNEMFEGRVTLTADTSTSTAYMELSSLRAGDIAVYYCARGDGNYALDAMDYWGQGTLVTVSSASTTAPSVFPLAPSCGSTSGSTVALACLVSGYFPEPVTVSWNSGSLTSGVHTFPSVLQSSGLYSLSSMVTVPSSRWPSETFTCNVAHPASKTKVDKPVPKRENGRVPRPPDCPKCPAPEMLGGPSVFIFPPKPKDTLLIARTPEVTCVVVDLDPEDPEVQISWFVDGKQMQTAKTQPREEQFNGTYRVVSVLPIGHQDWLKGKQFTCKVNNKALPSPIERTISKARGQAHQPSVYVLPPSREELSKNTVSLTCLIKDFFPPDIDVEWQSNGQQEPESKYRTTPPQLDEDGSYFLYSKLSVDKSRWQRGDTFICAVMHEALHTHYTQESLSHSPGK chain 2: DIVMTQTPPSLSVSPRETASISCRASESVDSYGNSFMHWYLQKPGQSPQLLIYLASNLESGVSDRFSGSGSGTDFTLRISRVEANDTGVYYCQQNNEDPLTFGQGTKLEIKRNDAQPAVYLFQPSPDQLHTGSASVVCLLNSFYPKDINVKWKVDGVIQDTGIQESVTEQDKDSTYSLSSTLTMSSTEYLSHELYSCEITHKSLPSTLIKSFQRSEC | 16.6 | 406
6 | anti-TGFβ antibody ZTS-4155, canine IgGB (65), N434V (antibody) chain 1: EVQLVQSGAEVKKPGASVKVSCKTSGYTFITYWMNWVRQAPGAGLDWMGQIFPASGSTNYNEMFEGRVTLTADTSTSTAYMELSSLRAGDIAVYYCARGDGNYALDAMDYWGQGTLVTVSSASTTAPSVFPLAPSCGSTSGSTVALACLVSGYFPEPVTVSWNSGSLTSGVHTFPSVLQSSGLYSLSSMVTVPSSRWPSETFTCNVAHPASKTKVDKPVPKRENGRVPRPPDCPKCPAPEMLGGPSVFIFPPKPKDTLLIARTPEVTCVVVDLDPEDPEVQISWFVDGKQMQTAKTQPREEQFNGTYRVVSVLPIGHQDWLKGKQFTCKVNNKALPSPIERTISKARGQAHQPSVYVLPPSREELSKNTVSLTCLIKDFFPPDIDVEWQSNGQQEPESKYRTTPPQLDEDGSYFLYSKLSVDKSRWQRGDTFICAVMHEALHVHYTQESLSHSPGK chain 2: DIVMTQTPPSLSVSPRETASISCRASESVDSYGNSFMHWYLQKPGQSPQLLIYLASNLESGVSDRFSGSGSGTDFTLRISRVEANDTGVYYCQQNNEDPLTFGQGTKLEIKRNDAQPAVYLFQPSPDQLHTGSASVVCLLNSFYPKDINVKWKVDGVIQDTGIQESVTEQDKDSTYSLSSTLTMSSTEYLSHELYSCEITHKSLPSTLIKSFQRSEC | 13.6 | 6.19
7 | anti-TGFβ antibody ZTS-4155, canine IgGB (65), N434W (antibody) chain 1: EVQLVQSGAEVKKPGASVKVSCKTSGYTFITYWMNWVRQAPGAGLDWMGQIFPASGSTNYNEMFEGRVTLTADTSTSTAYMELSSLRAGDIAVYYCARGDGNYALDAMDYWGQGTLVTVSSASTTAPSVFPLAPSCGSTSGSTVALACLVSGYFPEPVTVSWNSGSLTSGVHTFPSVLQSSGLYSLSSMVTVPSSRWPSETFTCNVAHPASKTKVDKPVPKRENGRVPRPPDCPKCPAPEMLGGPSVFIFPPKPKDTLLIARTPEVTCVVVDLDPEDPEVQISWFVDGKQMQTAKTQPREEQFNGTYRVVSVLPIGHQDWLKGKQFTCKVNNKALPSPIERTISKARGQAHQPSVYVLPPSREELSKNTVSLTCLIKDFFPPDIDVEWQSNGQQEPESKYRTTPPQLDEDGSYFLYSKLSVDKSRWQRGDTFICAVMHEALHWHYTQESLSHSPGK chain 2: DIVMTQTPPSLSVSPRETASISCRASESVDSYGNSFMHWYLQKPGQSPQLLIYLASNLESGVSDRFSGSGSGTDFTLRISRVEANDTGVYYCQQNNEDPLTFGQGTKLEIKRNDAQPAVYLFQPSPDQLHTGSASVVCLLNSFYPKDINVKWKVDGVIQDTGIQESVTEQDKDSTYSLSSTLTMSSTEYLSHELYSCEITHKSLPSTLIKSFQRSEC | 2.11 | 162
8 | anti-TGFβ antibody ZTS-4155, canine IgGB (65), N434C (antibody) chain 1: EVQLVQSGAEVKKPGASVKVSCKTSGYTFITYWMNWVRQAPGAGLDWMGQIFPASGSTNYNEMFEGRVTLTADTSTSTAYMELSSLRAGDIAVYYCARGDGNYALDAMDYWGQGTLVTVSSASTTAPSVFPLAPSCGSTSGSTVALACLVSGYFPEPVTVSWNSGSLTSGVHTFPSVLQSSGLYSLSSMVTVPSSRWPSETFTCNVAHPASKTKVDKPVPKRENGRVPRPPDCPKCPAPEMLGGPSVFIFPPKPKDTLLIARTPEVTCVVVDLDPEDPEVQISWFVDGKQMQTAKTQPREEQFNGTYRVVSVLPIGHQDWLKGKQFTCKVNNKALPSPIERTISKARGQAHQPSVYVLPPSREELSKNTVSLTCLIKDFFPPDIDVEWQSNGQQEPESKYRTTPPQLDEDGSYFLYSKLSVDKSRWQRGDTFICAVMHEALHCHYTQESLSHSPGK chain 2: DIVMTQTPPSLSVSPRETASISCRASESVDSYGNSFMHWYLQKPGQSPQLLIYLASNLESGVSDRFSGSGSGTDFTLRISRVEANDTGVYYCQQNNEDPLTFGQGTKLEIKRNDAQPAVYLFQPSPDQLHTGSASVVCLLNSFYPKDINVKWKVDGVIQDTGIQESVTEQDKDSTYSLSSTLTMSSTEYLSHELYSCEITHKSLPSTLIKSFQRSEC | – | 270
